# Assay results: publication PMC9668089
# Biological target: p170, truncated ORF2-encoded protein of aa 439-608 from hepatitis E virus CCJD-517 (hepatitis E virus CCJD-517 (HEV-3))
# Assay: non-reducing SDS-PAGE
substance,measurement,value
"p170, truncated ORF2-encoded protein of aa 439-608 from hepatitis E virus CCJD-517 (domain or fragment)",stoichiometry N,2
